The experiment has as its target T1, N-His-tagged p20 subunit of human ICE (human, UniProt P29466 120-297).
T1 construct: Subunit released from N-His p30 by autoprocessing
T1 sequence: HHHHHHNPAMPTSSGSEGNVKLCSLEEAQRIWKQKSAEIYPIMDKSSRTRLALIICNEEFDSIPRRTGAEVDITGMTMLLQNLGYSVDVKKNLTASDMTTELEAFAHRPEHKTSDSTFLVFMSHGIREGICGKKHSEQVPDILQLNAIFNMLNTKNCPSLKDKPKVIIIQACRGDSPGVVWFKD
Kind of experiment: co-expression as N-His p30 in E. coli, nickel chelating column purification. An excerpt: ICE (WT or modified) with an N-terminal polyhistidine tag was expressed in E. coli and purified using methodology described in Kamens et al. (1995) J. Biol. Chem., 270:15250-15256. Briefly, a DNA fragment encoding amino acid residues 120 to 404 of wild-type or D381E-modified ICE (p30) was cloned into an expression vector such that the p30-encoding fragment was fused in-frame at its N-terminus to DNA encoding six histidine residues. Following expression, the p30 fragment is correctly processed to p20 and p10 subunits, which associate to form mature, active N-His-tagged ICE proteins. The N-His ICE fusion proteins then were purified on a nickel chelating column (Porath, J. (1992) Protein Expression and Purification 2:263-281).

Substitutions are numbered along the chain they refer to. Names may count otherwise.

B1: wild-type p10 subunit of human ICE (other)
chain: AIKKAHIEKDFIAFCSSTPDNVSWRHPTMGSVFIGRLIEHMQEYACSCDVEEIFRKVRFSFEQPDGRAQMPTTERVTLTRCFYLFPGH
notes: Subunit released from WT N-His p30 by autoprocessing; also called ICE 317-404
As to B1, the binding result was “binds”.

B2: D381E-modified p10 subunit of human ICE (other)
chain: B1 chain with D65E
notes: Subunit released from D381E N-His p30 by autoprocessing; also called p10 D381E; ICE 317-404 D381E
Regarding B2, the binding result is “binds”.

These data come from patent US20020164762A1 (BASF AKTIENGESELLSCHAFT, published 2002).
